Tested on: stress hormone receptor (glucocorticoid receptor)
Assay: Single-molecule-format bioluminescent probe response to stress hormone
Assay type: cell-based
Details: with/without stress hormone
Procedure: In order to further examine the advantages of the highly-luminescent variants of the present invention, a single-molecule-format bioluminescent probe was synthesized based on this variant (FIG. 13). […] These probes were inserted into living cells, and the difference in the luminescence intensity was measured under conditions of presence and absence of […].
First, a stress hormone receptor recognizes the stress hormone, and causes an alteration in the structure. As a result, the receptor binds to the adjacent LXXLL motif, which thereby causes recombination of the fragments of the dissected luciferase. At this time, the activity of the stress hormone can be measured using the reversed enzyme activity as the index.
The sensitivity of SimGR3, 8990N, and Mon3N prepared for this experiment to the stress hormone was measured (FIG. 13B).

B1: SimGR3: control probe: original GLuc dissected into two fragments with GR LBD and LXXLL motif inserted (protein)
chain: MKPTENNEDFNIVAVASNFATTDLDADRGKLPGKKLPLEVLKEMEANARKAGCTRGCLICLSHIKCTPKMKKFIPGRCHTYEGDKESAQGGGGGTQLTPTLVSLLEVIEPEVLYAGYDSSVPDSTWRIMTTLNMLGGRQVIAAVKWAKAIPGFRNLHLDDQMTLLQYSWMFLMAFALGWRSYRQSSANLLCFAPDLIINEQRMTLPCMYDQCKHMLYVSSELHRLQVSYEEYLCMKTLLLLSSVPKDGLKSQELFDEIRMTYIKELGKAIVKREGNSSQNWQRFYQLTKLLDSMHEVVENLLNYCFQTFLDKTMSIEFPEMLAEIITNQIPKYSNGNIKKLLFHQKVDGGNGGRNALLRYLLDKDGSGGGGIGEAIVDIPEIPGFKDLEPMEQFIAQVDLCVDCTTGCLKGLANVQCSDLLKKWLPQRCATFASKIQGQVDKIKGAGGDKDEL
modifications: SimGR3; an integrated molecule-format probe carrying an LXXLL motif and GLuc.
notes: control probe: original GLuc dissected into two fragments with GR LBD and LXXLL motif inserted
  luminescence and stress hormone sensitivity with 610 nm long-pass filter: not significant enough to distinguish between the presence and absence of stress hormone
